From PMC7452723, “How to measure and evaluate binding affinities”

Key:
[1] = target: T1, Puf4 RNA-binding domain (Saccharomyces cerevisiae, UniProt P25339 537-888); test: EMSA; 0 C; quadratic fit; 20 mM HEPES-Na or HEPES-K pH 7.4, 2 mM MgCl2, 100 mM KOAc, 2 mM DTT, 0.2% Tween 20, 5% glycerol, 0.1 mg/ml BSA; 25 or 0 C; native 20% gel at 4-6 C; conditions: protein: recombinant; tags: C-terminal SNAP tag; N-terminal 6xHis removed by TEV; label: 5'-32P; single strand
T1 sequence: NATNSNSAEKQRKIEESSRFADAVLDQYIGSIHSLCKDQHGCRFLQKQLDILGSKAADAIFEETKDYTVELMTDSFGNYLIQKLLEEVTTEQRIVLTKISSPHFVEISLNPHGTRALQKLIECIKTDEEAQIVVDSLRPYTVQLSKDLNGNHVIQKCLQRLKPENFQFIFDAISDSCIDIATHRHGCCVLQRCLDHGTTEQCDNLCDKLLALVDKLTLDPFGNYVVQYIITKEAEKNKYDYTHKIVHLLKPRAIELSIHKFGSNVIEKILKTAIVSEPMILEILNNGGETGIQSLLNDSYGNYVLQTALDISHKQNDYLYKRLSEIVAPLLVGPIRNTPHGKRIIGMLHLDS

[2] = target: T1, Puf4 RNA-binding domain; test: EMSA kinetics (koff/kon); 25 C; kon 1.04e8 M-1s-1, koff 0.014 s-1; 20 mM HEPES-Na or HEPES-K pH 7.4, 2 mM MgCl2, 100 mM KOAc, 2 mM DTT, 0.2% Tween 20, 5% glycerol, 0.1 mg/ml BSA; 25 or 0 C; native 20% gel at 4-6 C; conditions: protein: recombinant; tags: C-terminal SNAP tag; N-terminal 6xHis removed by TEV; label: 5'-32P; single strand
[3] = target: T1, Puf4 RNA-binding domain; test: EMSA kinetics (koff/kon); 0 C; kon 2.85e7 M-1s-1, koff 2.92e-5 s-1; 20 mM HEPES-Na or HEPES-K pH 7.4, 2 mM MgCl2, 100 mM KOAc, 2 mM DTT, 0.2% Tween 20, 5% glycerol, 0.1 mg/ml BSA; 25 or 0 C; native 20% gel at 4-6 C; conditions: protein: recombinant; tags: C-terminal SNAP tag; N-terminal 6xHis removed by TEV; label: 5'-32P; single strand
[4] = target: T1, Puf4 RNA-binding domain; test: EMSA; 25 C; hyperbolic fit; active-fraction corrected; 20 mM HEPES-Na or HEPES-K pH 7.4, 2 mM MgCl2, 100 mM KOAc, 2 mM DTT, 0.2% Tween 20, 5% glycerol, 0.1 mg/ml BSA; 25 or 0 C; native 20% gel at 4-6 C; conditions: protein: recombinant; tags: C-terminal SNAP tag; N-terminal 6xHis removed by TEV; label: 5'-32P; single strand
[5] = target: T1, Puf4 RNA-binding domain; test: EMSA; 0 C; hyperbolic fit, upper limit (<=); 20 mM HEPES-Na or HEPES-K pH 7.4, 2 mM MgCl2, 100 mM KOAc, 2 mM DTT, 0.2% Tween 20, 5% glycerol, 0.1 mg/ml BSA; 25 or 0 C; native 20% gel at 4-6 C; conditions: protein: recombinant; tags: C-terminal SNAP tag; N-terminal 6xHis removed by TEV; label: 5'-32P; single strand
[6] = target: T1, Puf4 RNA-binding domain; test: EMSA; 25 C; direct measurement parallel to competition; corrected for 75% active protein; 20 mM HEPES-Na or HEPES-K pH 7.4, 2 mM MgCl2, 100 mM KOAc, 2 mM DTT, 0.2% Tween 20, 5% glycerol, 0.1 mg/ml BSA; 25 or 0 C; native 20% gel at 4-6 C; conditions: protein: recombinant; tags: C-terminal SNAP tag; N-terminal 6xHis removed by TEV; label: 5'-32P; single strand
[7] = target: T1, Puf4 RNA-binding domain; test: EMSA; 25 C; quadratic fit; 20 mM HEPES-Na or HEPES-K pH 7.4, 2 mM MgCl2, 100 mM KOAc, 2 mM DTT, 0.2% Tween 20, 5% glycerol, 0.1 mg/ml BSA; 25 or 0 C; native 20% gel at 4-6 C; conditions: protein: recombinant; tags: C-terminal SNAP tag; N-terminal 6xHis removed by TEV; label: 5'-32P; single strand
[8] = target: T1, Puf4 RNA-binding domain; test: competition EMSA; 25 C; three-fold lower Puf4; 20 mM HEPES-Na or HEPES-K pH 7.4, 2 mM MgCl2, 100 mM KOAc, 2 mM DTT, 0.2% Tween 20, 5% glycerol, 0.1 mg/ml BSA; 25 or 0 C; native 20% gel at 4-6 C; conditions: protein: recombinant; tags: C-terminal SNAP tag; N-terminal 6xHis removed by TEV; label: none; single strand
[9] = target: T1, Puf4 RNA-binding domain; test: competition EMSA; 25 C; vs labeled Puf4_HO, 0.45 nM active Puf4; 190-210 nM across 10-110 min; 230 nM with upper limit of labeled RNA; 20 mM HEPES-Na or HEPES-K pH 7.4, 2 mM MgCl2, 100 mM KOAc, 2 mM DTT, 0.2% Tween 20, 5% glycerol, 0.1 mg/ml BSA; 25 or 0 C; native 20% gel at 4-6 C; conditions: protein: recombinant; tags: C-terminal SNAP tag; N-terminal 6xHis removed by TEV; label: none; single strand

B1: Puf4_HO RNA (ssRNA)
RNA: AUGUGUAUAUUAGU
- Kd [1]: 1.39 ± 0.09 pM
- Kd [2]: 0.13 ± 0.03 nM
- Kd [3]: 1.02 ± 0.08 pM
- Kd [4]: 0.12 ± 0.03 nM
- Kd [5]: < 1.7 pM
- Kd [6]: 0.105 nM
- Kd [7]: 0.12 ± 0.03 nM

B2: U1C mutant competitor RNA (ssRNA)
RNA: CGUAUAUUA
- Kd [8]: 180 nM
- Kd [9]: 204 nM
